Data published in patent US20230348578A1, “CONFORMATION-SPECIFIC ANTIBODIES THAT BIND TAU PROTEIN AND USES THEREOF” (Beth Israel Deaconess Medical Center, Inc., priority 2020, published 2023).
Substitutions are numbered along the chain they refer to.

B1: HT18: humanized cis-pThr231-tau mAb; heavy chain variable domain SEQ ID NO: 29, light chain variable domain SEQ ID NO: 20 (antibody, V domains shown)
VH: QVQLVQSGAEVKKPGSSVKVSCKASGYTFTSYWIHWVRQAPGQGLEWMGVIDPSDSYTRYNQKFKGRVTITRDTSMSTAYTELSSLRSEDTAVYYCTTWEVDYWGQGTLVTVSS
VL: DIQMTQSPSTLSASVGDRVTITCRSSQSLVHSDGNTYLHWYQQKPGKAPKLLIYKVSNRFSGVPSRFSGSGSGTEFTLTISSLQPDDFATYYCSQSTHVPWTFGQGTKLEIK
B2: HT10: humanized cis-pThr231-tau mAb; heavy chain variable domain SEQ ID NO: 26, light chain variable domain SEQ ID NO: 19 (antibody, V domains shown)
VH: B1 VH with S16A, V20M, R38K, A40R, M48I, V68A, I70L, R72V, M76A, T81M
VL: DVVMTQSPLSLPVTLGQPASISCRSSQSLVHSDGNTYLHWYLQKPGQSPQLLIYKVSNRFSGVPDRFSGSGSGTDFTLKISRVEAEDVGVYYCSQSTHVPWTFGGGTKVEIK
B3: HT8: humanized cis-pThr231-tau mAb; heavy chain variable domain SEQ ID NO: 28, light chain variable domain SEQ ID NO: 18 (antibody, V domains shown)
VH: B1 VH with S16A, A40R, M48I, M76A, T81M
VL: B2 VL with F60D, Y92F
B4: HT3: humanized cis-pThr231-tau mAb; heavy chain variable domain SEQ ID NO: 27, light chain variable domain SEQ ID NO: 16 (antibody, V domains shown)
VH: B1 VH with S16A, A40R, M48I, I70L, R72V, M76A, T81M
VL: B2 VL with Y92F

Target: T1, cis P-tau (Homo sapiens, UniProt P10636)
Assay: Immunoblotting of CSF of live TBI patients
Format: binding
Parameters: The recognition of cis P-tau in the CSF of live TBI patients; from tissue; host or cells: cerebrospinal fluid of live traumatic brain injury patients
Conditions: relative to control CSF samples
From the text: CSF pT231-tau is an early biomarker of traumatic brain injury (TBI). The recognition of cis P-tau in the CSF of live TBI patients by the humanized cis pT231-tau monoclonal antibody variants evaluated immunoblotting analyses using different humanized antibody variants.

T1 sequence (P10636 1-441 isoform P10636-8): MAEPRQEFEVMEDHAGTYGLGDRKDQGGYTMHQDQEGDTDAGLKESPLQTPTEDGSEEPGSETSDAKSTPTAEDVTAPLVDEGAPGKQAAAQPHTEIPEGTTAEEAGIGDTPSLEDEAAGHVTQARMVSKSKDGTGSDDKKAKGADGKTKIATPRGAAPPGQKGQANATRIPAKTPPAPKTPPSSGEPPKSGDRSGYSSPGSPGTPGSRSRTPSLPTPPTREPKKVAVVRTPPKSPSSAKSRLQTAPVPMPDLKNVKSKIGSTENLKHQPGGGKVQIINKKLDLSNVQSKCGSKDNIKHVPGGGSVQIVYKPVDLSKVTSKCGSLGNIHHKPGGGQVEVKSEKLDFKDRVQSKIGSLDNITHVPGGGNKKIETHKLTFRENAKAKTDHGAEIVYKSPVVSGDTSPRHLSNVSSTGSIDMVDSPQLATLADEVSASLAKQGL

| Molecule | detection of cis P-tau in CSF of live TBI patients |
| --- | --- |
| B1 | robust detection of cis P-tau as early as three days after TBI |
| B2 | robust detection of cis P-tau as early as three days after TBI |
| B3 | robust detection of cis P-tau as early as three days after TBI |

Target: T1, cis P-tau
Assay: Elimination of cis P-tau in cultured neurons stressed by hypoxia
Format: cell-based
Parameters: endogenous in cells
Conditions: 2.5 μg/ml, 5 μg/ml and 10 μg/ml
Method: (§1) The binding affinity of selected humanized antibody clones was determined by Biacore assay using a wild-type P-tau peptide and its pure cis or cis-locked, and pure trans counterparts. The […] of the selected humanized cis mAb variants was determined by assessing their ability to eliminate cis P-tau in stressed neurons in cell cultures. Functional restoration of selected clones was determined by their ability to restore risk-taking behavior after 3-hit or 7-hit repetitive TBI in mice, as assayed by elevated plus maze.
Cultured neurons were subjected to neuron stress by hypoxia in the presence or absence of different concentration of humanized antibody variants, followed by immunoblotting analysis to analyze cis P-tau levels in the stressed neurons, the results of which are provided in FIGS. 2-4. FIG. 2 is an immunostaining image showing the ability of humanized cis pT231-tau monoclonal antibody variants to eliminate cis P-tau in neurons under hypoxic conditions. Cis P-tau levels are reported in red and blue reports nuclear staining (Hoechst) to represent all neurons in the experiment. […] Cis P-tau levels are reported in red and blue reports nuclear staining (Hoechst) to represent all neurons in the experiment. […] IgG is a negative control. The cis-pTau monoclonal antibody C113 serves as a positive control.

| elimination of cis P-tau in neurons under hypoxic conditions (images) | rank in cis P-tau elimination assay (FIG. 4) | Molecule |
| --- | --- | --- |
| elimination of cis P-tau | – | B4 |
| elimination of cis P-tau | top four performing variants | B1 |
| elimination of cis P-tau | top four performing variants | B2 |
| elimination of cis P-tau | top four performing variants | B3 |

Test system: BCAS (bilateral common carotid artery stenosis) mice
Assay: 3 month treatment of BCAS mice with humanized cis mAbs (Y maze, NOR, Barnes maze)
Format: in vivo
Conditions: 1 month after BCAS surgery
Method: BCAS mice were treated with novel humanized cis mAbs (HT10 and HT18), murine cis mAb C113 (as described in, e.g., U.S. Pat. No. 9,688,747, positive control), mouse-human chimeric HT13 (positive control), or IgG (negative control). Behavioral changes were assay by Y-maze and novel object recognition (NOR) at 1 month after BCAS (FIG. 92A); by Y-maze and NOR at 3 months after BCAS (FIG. 92B); and by Barnes maze at 3 months after BCAS (FIG. 92C). *, p<0.05; **, p<0.01; ***, p<0.001; ****, p<0.0001.
As described above in Examples 1-4, we developed 225 humanized cis P-tau mAb variants and identified 10 top fully humanized cis mAb variants (HT1-4, HT6-10 and HT18) with the expected specificity and potency. […] In this experiment, we performed a 3 month treatment of BCAS (bilateral common carotid artery stenosis) mice with two humanized cis mAb variants, HT10 and HT18, along with murine cis mAb C113 (as described in, e.g., U.S. Pat. No. 9,688,747) and mouse-human chimeric HT13 as positive controls.

| Molecule | VCID-like behavioral changes |
| --- | --- |
| B1 | effective in preventing VCID-like behavioral changes |
| B2 | effective in preventing VCID-like behavioral changes |

Same assay, conditions: 3 months after BCAS surgery, Barnes maze

| Molecule | VCID-like behavioral changes |
| --- | --- |
| B1 | effective in preventing VCID-like behavioral changes |
| B2 | effective in preventing VCID-like behavioral changes |

Target: cis pT231-tau (P-tau peptide, pure cis or cis-locked)
Assay: Biacore assay of binding affinity of humanized cis mAb variants
Conditions: not given
From the text: We next started to characterize and select lead humanized mAbs. We expressed and purified humanized mAb variants using a CHO expression system. We transfected over 45 plasmid DNA pairs of heavy and light chain cDNAs into CHO cells to express over 225 humanized cis mAb variants in various combinations. To evaluate the target binding specificity and affinity of our mouse mAbs, we established a simple and quantitative ELISA to screen the clones using a wild-type P-tau peptide and its pure cis or cis-locked, and pure trans counterparts and determined the binding affinity for selected clones using Biacore assays. We screened over 200 humanized cis mAb variants. […] Furthermore, one-tenth of humanized cis mAb variants were also able to recognize cis P-tau in human AD and TBI brains based on immunostaining analysis.
as §1

| Kd | Molecule |
| --- | --- |
| 3.51 nM | B4 |
| 1.91 nM | B1 |
| 1.77 nM | B2 |
| 7.68 nM | B3 |

Test system: mice (C57/BL6) after 3-hit repetitive TBI
Assay: 3-hit repetitive mild TBI in mice, elevated plus maze
Format: in vivo
Conditions: risk-taking behavior, HT13 chimera control = 1.0
Method: as §1
(§2) An initial sign of brain dysfunction following traumatic brain injury (TBI) is an increase in risk-taking behavior. To determine the therapeutic effect of the herein described cis pT231-tau monoclonal antibodies in restoring brain function 11-week old mice (C57/BL6) mice were subjected to elevated plus maze behavioral assays designed to evaluate risk-taking behavior following repetitive mild TBIs. The behavioral assays were performed as previously described in Walf, Nature Protocols 2(2): 322-328, 2007 (FIG. 7). […] All other mice sustained mild TBI (rmTB) either three times, once a day for three consecutive days, or seven times once a day for five consecutive days and two consecutive times on days 8 and 9. In the 3-hit TBI experiment (FIG. 8A), nine groups of mice received three doses (250 ug/mouse) via intraperitoneal injection of either IgG control (n=10 mice) or one of the following humanized cis pT231-tau monoclonal antibody variants C113 (n=5 mice), HT1 (n=10 mice), HT2 (n=10), HT3 (n=10), HT8 (n=5), HT10 (n=10), HT13 (n=15), HT18 (n=4). Treatment with IgG or humanized cis-pT231-tau monoclonal antibody was administered on Days 1, 2 and 7. Behavioral evaluation was performed on Day 13. In the 7-hit TBI experiment (FIG. 8B), one group sustained TBI only (n=10 mice). The other groups received 8 doses (250 ug/mouse) via intraperitoneal injection of either IgG control (n=10 mice) or one of the following humanized cis pT231-tau monoclonal antibody variants C113 (n=10 mice), HT2 (n=10), HT3 (n=10), HT8 (n=10), HT10 (n=10), HT13 (n=10), HT18/HC2 (n=10). Treatment with IgG or humanized cis-pT231-tau monoclonal antibody was administered on Days 1, 2, 3, 5, 8, 10, 13 and 20. Behavioral evaluation was performed on Day 27. The elevated plus maze was used to assess anxiety/risk-taking behavior and carried out as described in Kondo et al, Nature 523, 431-436, 2015. Briefly, the elevated plus maze consists of two white open arms (30×5 cm) and two white closed arms of the same size with 15-cm-high walls, extended out opposite from each other from a central platform (decision zone) to create a plus shape. The entire apparatus is raised 38 cm above the floor (Lafayette Instruments). Mice are placed on the center platform of the maze, facing a closed arm, and allowed to explore the apparatus for 5 min. The maze is cleaned between subjects with a weak ethanol solution and dried. A computer-assisted video tracking system (Noldus Ethovision) recorded the total time spent in the center platform (decision zone), and the two closed or ‘safe’ arms and the two open or ‘aversive’ arms. Mice with lower levels of anxiety/risk-taking behavior spend less time in the open arms.

| Molecule | Functional restoration 3-hit TBI |
| --- | --- |
| B4 | 1.7 |
| B1 | 1.0 |
| B2 | 1.2 |

Test system: mice (C57/BL6) after 7-hit repetitive TBI
Assay: 7-hit repetitive mild TBI in mice, elevated plus maze
Format: in vivo
Conditions: risk-taking behavior, HT13 chimera control = 1.0
Method: as §1, §2

| Molecule | Functional restoration 7-hit TBI |
| --- | --- |
| B4 | 2.0 |
| B1 | 1.1 |
| B2 | 1.3 |
| B3 | 1.4 |
